According to publication PMC10843171:

Experiments:
[1] = molecular target: human FcRn (human) (UniProt P55899); test: not stated
[2] = molecular target: cyno FcRn (cynomolgus monkey) (UniProt Q8SPV9); test: not stated
[3] = molecular target: PF-07209960, anti-human PD-1–IL15 mutein fusion protein (human); test: SPR; Biacore T200; fusion protein captured via anti-human Fc on a CM4 chip, receptor injected as analyte; 37°C; 10 mM HEPES, 150 mM NaCl, 0.05% Tween-20, pH 7.4, 1 mg/mL BSA; steady-state 1:1 Langmuir fit

Chain of UniProt P55899 (P55899 whole entry, looked up, tested part not stated): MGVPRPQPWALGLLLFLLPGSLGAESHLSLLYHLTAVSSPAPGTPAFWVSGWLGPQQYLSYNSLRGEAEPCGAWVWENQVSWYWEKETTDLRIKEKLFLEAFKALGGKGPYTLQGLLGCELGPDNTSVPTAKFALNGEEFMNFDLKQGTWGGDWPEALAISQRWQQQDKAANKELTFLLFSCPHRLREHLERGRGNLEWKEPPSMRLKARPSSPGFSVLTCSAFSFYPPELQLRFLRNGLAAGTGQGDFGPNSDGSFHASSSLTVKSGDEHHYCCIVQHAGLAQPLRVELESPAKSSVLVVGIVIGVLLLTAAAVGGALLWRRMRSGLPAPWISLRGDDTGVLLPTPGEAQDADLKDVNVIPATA
Chain of UniProt Q8SPV9 (Q8SPV9 whole entry, looked up, the tested form may be a part): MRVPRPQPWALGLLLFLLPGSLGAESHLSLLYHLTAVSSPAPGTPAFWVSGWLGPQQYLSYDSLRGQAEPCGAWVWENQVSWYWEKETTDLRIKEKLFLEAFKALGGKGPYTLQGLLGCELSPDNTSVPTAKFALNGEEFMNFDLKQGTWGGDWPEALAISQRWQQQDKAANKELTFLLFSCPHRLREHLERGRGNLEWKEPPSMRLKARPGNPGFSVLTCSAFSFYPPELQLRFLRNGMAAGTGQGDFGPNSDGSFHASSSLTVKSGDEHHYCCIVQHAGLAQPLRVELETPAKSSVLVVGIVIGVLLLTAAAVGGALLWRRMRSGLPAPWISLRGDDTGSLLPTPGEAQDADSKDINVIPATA

Row | Kd [1] | Kd [2] | Kd [3] | Substance
1 | 1040 nM | 426 nM | – | PF-07209960, anti-human PD-1–IL15 mutein fusion protein
2 | – | – | 4000 nM | human IL-2Rβ (from UniProt P14784 27-551) (receptor)
3 | – | – | 2400 nM | monkey IL-2Rβ (from UniProt Q38J85 27-551) (receptor)
